Measured values as given in patent publication US5145837A, “Treatment of arthritis” (Sandoz Ltd., priority 1988, dated 1992).

What was measured:
Tolerability = settings: in vivo
[1] = tested on: prostaglandin E2 production in mouse calvariae; assay: Inhibitory effect on prostaglandin E2 production stimulated by PTH in organ cultures of mouse calvariae; assay type: cell-based
Procedure: Organ cultures of mouse calvariae are first prepared according to the principles of U. L. Ivey, D. R. Wright, A. H. Tashjian, J. Clin. Invest. 58:1327 (1976) as follows:
Frontal and parietal bones are dissected from neonatal (5 to 6-day-old) mice (strain CD-1), split along the sagittal suture, and cultured in 2 ml of BGJ-medium containing 1 mg/ml bovine serum albumin, penicillin and streptomycin in 35 mm plastic tissue culture wells. […]
The cells are cultured for another 48 hours. During the entire culture period, the multi-well dishes are shaken on a rocker platform (15 oscillations/min) in a humidified atmosphere of 5% CO2 in air at 37° C. The calvaria-conditioned medium is harvested and placed at 4° C.
An aliquot of the medium is then assayed for prostaglandin E2 using a standard radioimmunossay. Prostaglandin E2 levels are reduced.

Molecule	tolerated dose (Tolerability)	PGE2 synthesis ([1]; PTH 10^-7 M alone (so in the source))	PGE2 synthesis ([1]; PTH 10^-10 M alone)
C[C@@H](O)[C@@H]1NC(=O)[C@H](CCCCN)NC(=O)[C@@H](Cc2c[nH]c3ccccc23)NC(=O)[C@H](Cc2ccccc2)NC(=O)[C@@H](NC(=O)[C@H](N)Cc2ccccc2)CSSC[C@@H](C(=O)N[C@H](CO)[C@@H](C)O)NC1=O [Compound IVa]	≥ 1 mg		
PTH: parathyroid hormone used to stimulate prostaglandin E2 production (protein, UniProt P01270 32-115, looked up, Parathyroid hormone, parathyroid hormone used to stimulate prostaglandin E2 production) Parathyroid hormone: SVSEIQLMHNLGKHLNSMERVEWLRKKLQDVHNFVALGAPLAPRDAGSQRPRKKEDNVLVESHEKSLGEADKADVNVLTKAKSQ		340 pg/mL	50 pg/mL
